Patent publication US20080125498A1 (published 2008)

Target: T1, protease-activated receptor 1 (PAR1), rat, endogenous in hippocampal neurons (rat, UniProt P26824 46-432)
T1 sequence (looked up): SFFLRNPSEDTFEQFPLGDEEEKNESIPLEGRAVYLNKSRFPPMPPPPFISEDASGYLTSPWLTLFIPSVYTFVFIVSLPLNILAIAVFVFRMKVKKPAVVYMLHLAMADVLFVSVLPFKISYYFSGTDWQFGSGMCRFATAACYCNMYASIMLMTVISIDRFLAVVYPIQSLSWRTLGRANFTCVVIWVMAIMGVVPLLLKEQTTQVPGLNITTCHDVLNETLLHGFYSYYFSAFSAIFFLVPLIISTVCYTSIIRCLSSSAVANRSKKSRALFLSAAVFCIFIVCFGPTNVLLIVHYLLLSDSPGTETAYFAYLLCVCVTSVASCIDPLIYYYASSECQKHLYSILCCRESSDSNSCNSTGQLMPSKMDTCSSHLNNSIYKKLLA
Experiment: cell-based or functional assay

potentiation of the response to NMDA plus glycine in CA1 pyramidal cells, 30 micromolar SFLLRN: 1.76 fold
Binder: SFLLRN
